Measured values taken from PMC13042514, “Comprehensive Profiling of N 6‐methyladnosine (m6A) Readouts Reveals Novel m6A Readers That Regulate Human Embryonic Stem Cell Differentiation”.

What was measured:
Assay in all cases: EMSA; EMSA: Beyotime GS606 kit binding buffer (composition not given), 1 ug protein and 1 uL of 2.5 nM biotin probe in 10 uL, on ice 10 min; pull-down: Pierce 20164 kit, 50 pmol RNA, 200 ug total protein, 4 C 30-60 min
Settings in all cases: protein: recombinant; tags: GST; label: biotin; single strand
GST-FXR2 = GST-FXR2 (UniProt P51116 1-673)
GST-FUBP3 = GST-FUBP3 (UniProt Q96I24 1-572)
GST-L1TD1 = molecular target: T1, GST-L1TD1 (UniProt Q5T7N2 1-865)
T1 sequence: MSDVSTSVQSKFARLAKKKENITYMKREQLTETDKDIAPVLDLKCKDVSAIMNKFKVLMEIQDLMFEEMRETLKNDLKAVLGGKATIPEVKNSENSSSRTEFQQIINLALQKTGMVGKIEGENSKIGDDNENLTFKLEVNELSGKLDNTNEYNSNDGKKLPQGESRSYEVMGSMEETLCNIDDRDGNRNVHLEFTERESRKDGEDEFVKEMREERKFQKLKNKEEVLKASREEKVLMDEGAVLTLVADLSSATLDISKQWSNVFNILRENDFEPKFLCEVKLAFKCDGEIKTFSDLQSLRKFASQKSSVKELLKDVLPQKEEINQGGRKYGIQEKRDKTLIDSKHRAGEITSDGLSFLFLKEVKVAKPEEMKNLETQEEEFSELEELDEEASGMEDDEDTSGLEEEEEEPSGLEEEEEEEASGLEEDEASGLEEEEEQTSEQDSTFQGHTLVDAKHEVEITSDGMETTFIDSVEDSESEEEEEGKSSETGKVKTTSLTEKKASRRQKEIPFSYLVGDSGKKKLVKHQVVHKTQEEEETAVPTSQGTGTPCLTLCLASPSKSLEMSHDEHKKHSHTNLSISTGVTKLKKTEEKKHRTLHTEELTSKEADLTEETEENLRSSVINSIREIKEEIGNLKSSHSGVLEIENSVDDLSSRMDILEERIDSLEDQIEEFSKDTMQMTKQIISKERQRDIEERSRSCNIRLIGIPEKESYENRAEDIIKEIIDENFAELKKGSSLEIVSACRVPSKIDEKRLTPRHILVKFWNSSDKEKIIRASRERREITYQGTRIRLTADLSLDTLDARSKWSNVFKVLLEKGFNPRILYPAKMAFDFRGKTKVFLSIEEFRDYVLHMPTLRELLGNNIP

GST-DDX6 = GST-DDX6 (UniProt P26196 1-483)

Measured: binding result

GST-FUBP3, sequence (Q96I24 whole entry): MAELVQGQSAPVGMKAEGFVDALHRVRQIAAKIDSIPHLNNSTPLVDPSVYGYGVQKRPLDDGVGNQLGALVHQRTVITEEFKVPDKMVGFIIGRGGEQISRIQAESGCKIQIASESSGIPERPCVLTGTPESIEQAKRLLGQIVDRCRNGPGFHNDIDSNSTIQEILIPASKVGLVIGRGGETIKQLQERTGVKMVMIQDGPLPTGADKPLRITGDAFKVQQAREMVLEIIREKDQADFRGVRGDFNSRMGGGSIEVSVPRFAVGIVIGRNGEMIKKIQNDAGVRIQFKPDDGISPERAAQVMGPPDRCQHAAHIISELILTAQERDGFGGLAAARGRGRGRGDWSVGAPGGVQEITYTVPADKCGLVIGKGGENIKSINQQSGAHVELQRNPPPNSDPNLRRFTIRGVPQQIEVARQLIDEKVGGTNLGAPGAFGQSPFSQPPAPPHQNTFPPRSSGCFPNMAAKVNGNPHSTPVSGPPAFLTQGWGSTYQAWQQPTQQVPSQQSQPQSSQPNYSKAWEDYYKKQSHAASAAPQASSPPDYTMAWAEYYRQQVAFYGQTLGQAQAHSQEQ
GST-FXR2, sequence (P51116 whole entry): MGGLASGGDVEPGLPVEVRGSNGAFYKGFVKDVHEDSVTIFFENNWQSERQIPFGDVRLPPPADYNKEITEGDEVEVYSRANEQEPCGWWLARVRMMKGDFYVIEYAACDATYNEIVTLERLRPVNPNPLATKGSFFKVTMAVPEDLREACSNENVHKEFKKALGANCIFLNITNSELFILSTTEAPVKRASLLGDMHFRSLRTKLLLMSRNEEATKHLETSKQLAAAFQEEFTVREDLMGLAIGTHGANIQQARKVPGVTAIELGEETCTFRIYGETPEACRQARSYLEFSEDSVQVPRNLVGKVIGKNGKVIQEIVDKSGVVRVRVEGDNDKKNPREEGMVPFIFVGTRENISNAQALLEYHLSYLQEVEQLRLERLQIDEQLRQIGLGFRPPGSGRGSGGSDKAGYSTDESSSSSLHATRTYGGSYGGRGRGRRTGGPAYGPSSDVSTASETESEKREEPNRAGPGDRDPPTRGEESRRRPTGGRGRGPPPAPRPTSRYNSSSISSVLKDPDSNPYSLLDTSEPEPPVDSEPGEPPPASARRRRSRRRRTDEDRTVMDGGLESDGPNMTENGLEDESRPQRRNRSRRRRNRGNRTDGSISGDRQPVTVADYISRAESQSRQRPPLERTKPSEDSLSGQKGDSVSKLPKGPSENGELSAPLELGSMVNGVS
GST-DDX6, sequence (P26196 whole entry): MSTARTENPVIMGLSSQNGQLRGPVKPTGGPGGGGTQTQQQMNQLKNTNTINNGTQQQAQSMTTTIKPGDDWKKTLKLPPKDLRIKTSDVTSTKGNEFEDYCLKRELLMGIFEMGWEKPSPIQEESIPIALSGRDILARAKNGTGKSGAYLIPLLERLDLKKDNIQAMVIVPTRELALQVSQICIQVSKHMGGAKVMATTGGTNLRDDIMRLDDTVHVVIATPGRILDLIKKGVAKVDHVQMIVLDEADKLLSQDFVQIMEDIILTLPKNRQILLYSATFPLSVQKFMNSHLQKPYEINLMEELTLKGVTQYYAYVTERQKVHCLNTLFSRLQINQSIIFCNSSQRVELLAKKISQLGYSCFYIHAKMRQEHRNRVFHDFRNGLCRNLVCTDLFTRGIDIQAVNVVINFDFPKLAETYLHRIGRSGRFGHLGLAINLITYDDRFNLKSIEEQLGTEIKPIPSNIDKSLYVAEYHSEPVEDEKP

CGUCUCGGACUCGGACUGCU (ssRNA, m6A at positions 9 and 15) [ss-m6A (EMSA)]
binds: all assays above
